Experimental findings from patent US6998239 (dated 2006) are described below.

T1: human CCX CKR with N-terminal Flag epitope, stably expressed on HEK293 cells (UniProt Q9NPB9 1-350)
T1 chain: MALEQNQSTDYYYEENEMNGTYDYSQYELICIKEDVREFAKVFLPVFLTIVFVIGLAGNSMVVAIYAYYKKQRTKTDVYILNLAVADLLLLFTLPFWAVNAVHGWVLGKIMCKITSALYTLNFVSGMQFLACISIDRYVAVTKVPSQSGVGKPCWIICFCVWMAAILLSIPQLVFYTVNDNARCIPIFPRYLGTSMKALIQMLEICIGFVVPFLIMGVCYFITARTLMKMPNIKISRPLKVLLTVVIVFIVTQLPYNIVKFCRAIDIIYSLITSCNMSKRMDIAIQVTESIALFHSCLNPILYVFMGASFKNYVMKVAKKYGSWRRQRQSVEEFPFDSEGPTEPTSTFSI

B1: murine ELC (ligand)
chain: GANDAEDCCLSVTQRPIPGNIVKAFRYLLNEDGCRVPAVVFTTLRGYQLCAPPDQPWVDRIIRRLKKSSAKNKGNSTRRSPVS
B2: murine SLC (ligand)
chain: SDGGGQDCCLKYSQKKIPYSIVRGYRKQEPSLGCPIPAILFSPRKHSKPELCANPEEGWVQNLMRRLDQPPAPGKQSPGCRKNRGTSKSGKKGKGSKGCKRTEQTQPSRG
B3: human SLC (secondary lymphoid-tissue chemokine) (ligand)
chain: SDGGAQDCCLKYSQRKIPAKVVRSYRKQEPSLGCSIPAILFLPRKRSQAELCADPKELWVQQLMQHLDKTPSPQKPAQGCRKDRGASKTGKKGKGSKGCKRTERSQTPKGP
B4: MCP-3 (ligand)
chain: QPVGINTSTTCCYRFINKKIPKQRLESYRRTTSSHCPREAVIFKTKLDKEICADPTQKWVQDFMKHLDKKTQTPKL
B5: human TECK (thymus expressed chemokine) (ligand)
chain: QGVFEDCCLAYHYPIGWAVLRRAWTYRIQEVSGSCNLPAAIFYLPKRHRKVCGNPKSREVQRAMKLLDARNKVFAKLHHNTQTFQAGPHAVKKLSSGNSKLSSSKFSNPISSSKRNVSLLISANSGL
modifications: 125I label where used as radioligand
B6: human ELC (EBI1 ligand chemokine) (ligand)
chain: GTNDAEDCCLSVTQKPIPGYIVRNFHYLLIKDGCRVPAVVFTTLRGRQLCAPPDQPWVERIIQRLQRTSAKMKRRSS
modifications: 125I label where used as radioligand
B7: mMIP-1gamma (murine macrophage inflammatory protein 1 gamma) (ligand)
chain: QITHATETKEVQSSLKAQQGLEIEMFHMGFQDSSDCCLSYNSRIQCSRFIGYFPTSGGCTRPGIIFISKRGFQVCANPSDRRVQRCIERLEQNSQPRTYKQ
B8: murine TECK (ligand)
chain: QGAFEDCCLGYQHRIKWNVLRHARNYHQQEVSGSCNLRAVRFYFRQKVVCGNPEDMNVKRAMRILTARKRLVHWKSASDSQTERKKSNHMKSKVENPNSTSVRSATLGHPRMVMMPRKTNN
B9: vMIPII (viral macrophage inflammatory protein II) from human Kaposi's sarcoma herpesvirus HHV8 (ligand)
chain: LGASWHRPDKCCLGYQKRPLPQVLLSSWYPTSQLCSKPGVIFLTKRGRQVCADKSKDWVKKLMQQLPVTAR

The target of the assay is T1, human CCX CKR with N-terminal Flag …. Nature of the assay: 125I-ELC competition binding.
Regarding B1, the IC50 was found to be 1 nM.
In the case of B2 it was 4 nM.
Then B3, with 12 nM.
Consider B4, for which the IC50 is > 2000 nM.
Molecule B5 displayed an IC50 of 7 nM.
The molecule B6 gave an IC50 of 6 nM.
Regarding B7, the IC50 turned out to be 70 nM.
In the case of B8 it was 2 nM; in that of B9, 90 nM.
